In assay [1] the target is T1, EDIII-DV3 (Dengue virus serotype 3 (DV3), UniProt Q6YMS3 579-671).
T1 construct: also called EDIII of DV3; EDIII-DVIII
Description: competition ELISA; affinity relative to 4E5A.

In assay [2] the target is T2, EDIII-DV1 (Dengue virus serotype 1 (DV1), UniProt P17763 581-673).
T2 construct: also called EDIII of DV1; EDIII-DVI
Description: competition ELISA; affinity relative to 4E5A. For orientation: ELISA stands for enzyme-linked immunosorbent assay.

Assay [3] deals with T3, EDIII-DV4 (Dengue virus serotype 4 (DV4), UniProt P09866 580-672).
T3 construct: also called EDIII of DV4; DV4 EDIII
Description: competition ELISA; affinity relative to 4E5A.

The target of assay [4] is T1, EDIII-DV3.
For assay [5], the target named is T3, EDIII-DV4.
The target of assay [6] is T1, EDIII-DV3. This is another data set of the same source.
The target in assay [7] is T2, EDIII-DV1.
Assay [8] deals with T3, EDIII-DV4. The source holds these as a separate data set.
The target in assay [9] is T4, EDIII-DV2 (Dengue virus serotype 2 (DV2), UniProt P14337 581-673).
T4 construct: also called EDIII of DV2; EDIII-DVII

The target of assay [10] is T2, EDIII-DV1. The source holds these as a separate data set.
Assay [11] concerns the target T4, EDIII-DV2. The source holds these as a separate data set.
The target of assay [12] is T3, EDIII-DV4. Description: scFv displayed on yeast (YSD), soluble tagged EDIII-DV4 titrated, read by FACS. In general terms: Flow cytometry measures light scatter and fluorescence of single cells or particles in a stream.
Assay [13] concerns the target T3, EDIII-DV4. Put plainly: calculated from KD, relative to 4E11 WT.
In assay [14] the target is T3, EDIII-DV4. Description: calculated from KD, ΔG = RTln(KD) at 25° C.
In assay [15] the target is T3, EDIII-DV4. The source holds these as a separate data set.

This is an account of results in patent publication US20200207841A1 (MIT, published 2020).

By Kd is commonly meant the constant that tells how readily two partners part at equilibrium. Low values mean a tighter complex, high ones a looser complex. A word on the koff: it is the first-order rate constant of dissociation. By kon is commonly meant a measure of how fast the partners come together. Higher therefore signals fast association.

Read-outs that look alike come from different tables or passages of the source.

B1: VH_A25_del (antibody, V domains shown)
VH: VKLLEQSGAELVKPGASVRLSCTSGFNIKDTYMSWVKQRPEQGLEWIGRIDPENGDTKYDPKFQGKATITADTSSNTAYLHLSSLTSGDTAVYYCSRGWEGFAYWGQGTLVTVSA
VL: ELVMTQTPASLAVSLGQRATISCRASENVDKYGNSFMHWYQQKAGQPPKLLIYRASELQWGIPARFSGSGSRTDFTLTINPVEADDVATYFCQRSNEVPWTFGGGTKLEIK
notes: also called 4E5-del-25; copies: 2 + 2
Regarding B1, the “REL AFFINITY” value with EDIII-DV3 [1] is 1.22; with EDIII-DV1 [2], 0.29; in the assay with EDIII-DV4 [3] it was 0.54. The Kd with EDIII-DV3 [4] is 5.4 nM; with EDIII-DV4 [5] it was 25.9 nM; with EDIII-DV3 [6] it was 19.8 nM; in the assay with EDIII-DV1 [7] it was 1.27 nM; in the assay with EDIII-DV4 [8], 236 nM; with EDIII-DV2 [9], < 0.3 nM. In the assay with EDIII-DV1 [10], the affinity, expressed as Kd, was 1.43 nM. For the same molecule, the koff in the assay with EDIII-DV3 [4] was 0.0269 s⁻¹; in the assay with EDIII-DV4 [5], 0.13 s⁻¹; with EDIII-DV1 [10], 0.00133 s⁻¹; in the assay with EDIII-DV2 [11] it was 0.000182 s⁻¹. In addition, the kon in the assay with EDIII-DV3 [4] was found to be 4.98e+06 M⁻¹ s⁻¹; with EDIII-DV4 [5], 4.99e+06 M⁻¹ s⁻¹; with EDIII-DV1 [10] it was 933000 M⁻¹ s⁻¹; in the assay with EDIII-DV2 [11], 2.74e+06 M⁻¹ s⁻¹.

B2: 4E5A single chain Fv on yeast (scFv, V domains shown)
VH: VKLLEQSGAELVKPGASVRLSCTASGFNIKDTYMSWVKQRPEQGLEWIGRIDPENGDTKYDPKFQGKATITADTSSNTAYLHLSSLTSGDTAVYYCSRGWEGFAYWGQGTLVTVSA
VL: ELVMTQTPASLAVSLGQRATISCRASENVDKYGNSFMHWYQQKAGQPPKLLIYRASELQWGIPARFSGSGSRTDFTLTINPVEADDVATYFCQRSNEVPWTFGGGTKLEIKR
notes: also called 4E5A scFv
In the case of B2, the equilibrium dissociation constant (Kd) in the assay with EDIII-DV4 [12] was determined as 650 nM.

B3: VH_G27P (antibody, V domains shown)
VH: VKLLEQSGAELVKPGASVRLSCTASPFNIKDTYMSWVKQRPEQGLEWIGRIDPENGDTKYDPKFQGKATITADTSSNTAYLHLSSLTSGDTAVYYCSRGWEGFAYWGQGTLVTVSA
VL: ELVMTQTPASLAVSLGQRATISCRASENVDKYGNSFMHWYQQKAGQPPKLLIYRASELQWGIPARFSGSGSRTDFTLTINPVEADDVATYFCQRSNEVPWTFGGGTKLEIK
notes: also called 4E5-G27P; copies: 2 + 2
Take B3: the “REL AFFINITY” value came to 0.73 with EDIII-DV3 [1], 0.08 with EDIII-DV1 [2] and 0.06 with EDIII-DV4 [3]. In addition, the Kd in the assay with EDIII-DV3 [4] turned out to be 4.52 nM; with EDIII-DV3 [6], 33.1 nM; with EDIII-DV1 [7], 4.58 nM; with EDIII-DV4 [8], 1970 nM; with EDIII-DV1 [10] it was 2.76 nM; in the assay with EDIII-DV2 [11], 0.265 nM. Moreover, the koff with EDIII-DV3 [4] worked out at 0.0133 s⁻¹; with EDIII-DV1 [10] it was 0.00841 s⁻¹; in the assay with EDIII-DV2 [11], 0.000527 s⁻¹. The figures for the kon with EDIII-DV3 [4], with EDIII-DV1 [10] and with EDIII-DV2 [11] were 2.95e+06 M⁻¹ s⁻¹, 3.05e+06 M⁻¹ s⁻¹ and 1.99e+06 M⁻¹ s⁻¹, respectively.

B4: VH_S26_del (antibody, V domains shown)
VH: VKLLEQSGAELVKPGASVRLSCTAGFNIKDTYMSWVKQRPEQGLEWIGRIDPENGDTKYDPKFQGKATITADTSSNTAYLHLSSLTSGDTAVYYCSRGWEGFAYWGQGTLVTVSA
VL: ELVMTQTPASLAVSLGQRATISCRASENVDKYGNSFMHWYQQKAGQPPKLLIYRASELQWGIPARFSGSGSRTDFTLTINPVEADDVATYFCQRSNEVPWTFGGGTKLEIKR
For the molecule B4, the “REL AFFINITY” value in the assay with EDIII-DV3 [1] is 4.42; with EDIII-DV1 [2] it was > 1.23. Further, the Kd is 2.6 nM with EDIII-DV3 [4]; 5.47 nM with EDIII-DV3 [6]; < 0.3 nM with EDIII-DV1 [7]; < 0.3 nM with EDIII-DV2 [9]; 0.118 nM with EDIII-DV1 [10]; 0.104 nM with EDIII-DV2 [11].

B5: VH_Y106R (antibody, V domains shown)
VH: VKLLEQSGAELVKPGASVRLSCTASGFNIKDTYMSWVKQRPEQGLEWIGRIDPENGDTKYDPKFQGKATITADTSSNTAYLHLSSLTSGDTAVYYCSRGWEGFARWGQGTLVTVSA
VL: ELVMTQTPASLAVSLGQRATISCRASENVDKYGNSFMHWYQQKAGQPPKLLIYRASELQWGIPARFSGSGSRTDFTLTINPVEADDVATYFCQRSNEVPWTFGGGTKLEIK
notes: copies: 2 + 2
Take B5: the “REL AFFINITY” value with EDIII-DV3 [1] was 0.72; with EDIII-DV1 [2] it was > 1.23; with EDIII-DV4 [3], 0.46. Also, the Kd was 33.4 nM in the assay with EDIII-DV3 [6], < 0.3 nM with EDIII-DV1 [7] and 272 nM in the assay with EDIII-DV4 [8].

B6: VH_G27A single chain Fv on yeast (scFv, V domains shown)
VH: VKLLEQSGAELVKPGASVRLSCTASAFNIKDTYMSWVKQRPEQGLEWIGRIDPENGDTKYDPKFQGKATITADTSSNTAYLHLSSLTSGDTAVYYCSRGWEGFAYWGQGTLVTVSA
VL: ELVMTQTPASLAVSLGQRATISCRASENVDKYGNSFMHWYQQKAGQPPKLLIYRASELQWGIPARFSGSGSRTDFTLTINPVEADDVATYFCQRSNEVPWTFGGGTKLEIKR
As for B6, binding in the assay with EDIII-DV4 [12] was put at a Kd of 185 nM.

B7: 4E11 VL-E59Q (antibody, V domains shown)
VH: VKLLEQSGAELVKPGASVRLSCTASGFNIKDTYMSWVKQRPEQGLEWIGRIDPANGDTKYDPKFQGKATITADTSSNTAYLHLSSLTSGDTAVYYCSRGWEGFAYWGQGTLVTVSA
VL: ELVMTQTPASLAVSLGQRATISCRASENVDRYGNSFMHWYQQKAGQPPKLLIYRASNLQSGIPARFSGSGSRTDFTLTINPVEADDVATYFCQRSNEVPWTFGGGTKLEIKR
B7: the “ΔΔG (ΔGmutant - ΔGWT)” value in the assay with EDIII-DV4 [13] was -0.77 kcal/mol. For the same molecule, the ΔG with EDIII-DV4 [14] was -6.76 kcal/mol. In the assay with EDIII-DV4 [15], this molecule came in with a Kd of 11000 nM.

B8: VH_G27P single chain Fv on yeast (scFv, V domains shown)
VH: VKLLEQSGAELVKPGASVRLSCTASPFNIKDTYMSWVKQRPEQGLEWIGRIDPENGDTKYDPKFQGKATITADTSSNTAYLHLSSLTSGDTAVYYCSRGWEGFAYWGQGTLVTVSA
VL: ELVMTQTPASLAVSLGQRATISCRASENVDKYGNSFMHWYQQKAGQPPKLLIYRASELQWGIPARFSGSGSRTDFTLTINPVEADDVATYFCQRSNEVPWTFGGGTKLEIKR
As to B8, the affinity in the assay with EDIII-DV4 [12], expressed as Kd, was 53300 nM.

B9: VH_G27A (antibody, V domains shown)
VH: VKLLEQSGAELVKPGASVRLSCTASAFNIKDTYMSWVKQRPEQGLEWIGRIDPENGDTKYDPKFQGKATITADTSSNTAYLHLSSLTSGDTAVYYCSRGWEGFAYWGQGTLVTVSA
VL: ELVMTQTPASLAVSLGQRATISCRASENVDKYGNSFMHWYQQKAGQPPKLLIYRASELQWGIPARFSGSGSRTDFTLTINPVEADDVATYFCQRSNEVPWTFGGGTKLEIKR
With B9, the “REL AFFINITY” value in the assay with EDIII-DV3 [1] is 1.17; in the assay with EDIII-DV1 [2] it was > 1.23; in the assay with EDIII-DV4 [3], 2.92. In addition, the Kd with EDIII-DV3 [4] is 3.24 nM; with EDIII-DV4 [5], 22.1 nM; with EDIII-DV3 [6], 20.6 nM; in the assay with EDIII-DV1 [7], < 0.3 nM; in the assay with EDIII-DV4 [8] it was 43.2 nM; with EDIII-DV2 [9], < 0.3 nM. The Kd stood at 0.0805 nM with EDIII-DV1 [10] and 0.202 nM with EDIII-DV2 [11]. Also, the figures for the koff in the assay with EDIII-DV3 [4], with EDIII-DV4 [5] and with EDIII-DV1 [10] were 7.54 s⁻¹, 0.0406 s⁻¹ and 8.38e-05 s⁻¹, respectively. The results for the kon in the assay with EDIII-DV4 [5], in the assay with EDIII-DV1 [10] and in the assay with EDIII-DV2 [11] were 1.83e+06 M⁻¹ s⁻¹, 1.04e+06 M⁻¹ s⁻¹ and 2.08e+06 M⁻¹ s⁻¹, respectively.

B10: VH_G27_del (antibody, V domains shown)
VH: VKLLEQSGAELVKPGASVRLSCTASFNIKDTYMSWVKQRPEQGLEWIGRIDPENGDTKYDPKFQGKATITADTSSNTAYLHLSSLTSGDTAVYYCSRGWEGFAYWGQGTLVTVSA
VL: ELVMTQTPASLAVSLGQRATISCRASENVDKYGNSFMHWYQQKAGQPPKLLIYRASELQWGIPARFSGSGSRTDFTLTINPVEADDVATYFCQRSNEVPWTFGGGTKLEIKR
For B10, the “REL AFFINITY” value was 2.67 with EDIII-DV3 [1], > 1.23 with EDIII-DV1 [2] and 4.78 with EDIII-DV4 [3]. Moreover, the dissociation constant (Kd) in the assay with EDIII-DV3 [4] is 2.39 nM; with EDIII-DV4 [5] it was 8.04 nM; with EDIII-DV3 [6] it was 9.05 nM; in the assay with EDIII-DV1 [7], < 0.3 nM; with EDIII-DV4 [8], 26.4 nM; with EDIII-DV2 [9], < 0.3 nM. The Kd with EDIII-DV1 [10] turned out to be 0.31 nM; with EDIII-DV2 [11], 0.269 nM. The koff in the assay with EDIII-DV3 [4] is 0.0483 s⁻¹; with EDIII-DV4 [5], 0.0188 s⁻¹; in the assay with EDIII-DV1 [10] it was 0.000471 s⁻¹; with EDIII-DV2 [11], 0.000563 s⁻¹. In addition, the kon in the assay with EDIII-DV3 [4] was found to be 2.02e+07 M⁻¹ s⁻¹; with EDIII-DV4 [5] it was 2.34e+06 M⁻¹ s⁻¹; in the assay with EDIII-DV1 [10], 1.52e+06 M⁻¹ s⁻¹; in the assay with EDIII-DV2 [11], 2.09e+06 M⁻¹ s⁻¹.
